This note sets out measurements from the supplement of paper PMC12042874.

± gives the uncertainty stated by the source.

A short description of this series: amyloid nucleation score (Sup35N fusion, yeast selection) (log enrichment); library NNK2; higher = more nucleation; inactive = no reads after selection. The gist of the method: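 After 24 hours of induction with 100 μM copper sulfate, psi-negative yeast expressing peptides of 20 random codons fused to Sup35N were grown for 7 days at 30°C on medium lacking adenine and uracil. Input and output plasmid inserts were sequenced with Illumina, and sequences with under 100 input reads were discarded. Scores for nucleation are the DiMSum log enrichment of output over input reads, centred on the mode score of non-aggregating sequences.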

For the substance FCFMIEGIFMCRLLLSRASF, the amyloid nucleation score result is “inactive”. Under IRSFVSIRMFVCGRSDLRSN stands -0.22 ± 1.1; under FSWVIYYE, -1.27 ± 1.1; under IIVFV, 0.086 ± 0.74.

YSYVGFIF gave an amyloid nucleation score of 1.49 ± 0.32. For MYIMLFRFVRIVDLLDCLGN, the amyloid nucleation score was 0.207 ± 0.43. For AFIYYFNLTSAHYFPMRQMF, the amyloid nucleation score result was “inactive”. Then YPFLIS, with -0.922 ± 1; and GLSCVFRMRIE, with 6.266 ± 0.05. Under VFVARITSRTIIVLNESGFE stands 5.21 ± 0.089; under DLGDKFL, 1.67 ± 0.23; under YTTRSVMVSCGYCR, -0.29 ± 0.27.

In the case of IYGSYVLDLVGVNLAGKGEN, the amyloid nucleation score is -0.347 ± 1.

FRVGLLVGISMVDFTLGVNA returned an amyloid nucleation score of 0.416 ± 0.8.

In the case of FTCAYA, the amyloid nucleation score result is “inactive”. Substance GREVHALPHEGMVDRSGRGT yielded an amyloid nucleation score of 1.29 ± 0.16. In turn, FMVQSVFTKLGPSQAFRVHP gave an amyloid nucleation score of -0.14 ± 1.

RFMFPRTSIVWNASYVVGVL returned an amyloid nucleation score of 2.92 ± 0.11.

As for MWVWQEPDVWARLCLDGYEK, the amyloid nucleation score was -0.127 ± 0.45. Then IYRTYYGMNACLINLCMFDN, with 7.734 ± 0.055; and IKVYSTVYQVSCLLRLMLLM, with -1.24 ± 0.64.

For the substance ILIIRLKFLVIVAITSTGSD, the amyloid nucleation score entry was “inactive”. Then LTFPA, with -0.206 ± 1.1; and RLNCACFRADTVGDYLGVRL, with -0.158 ± 0.29; and DFINIPSVFIIYMK, with 1.73 ± 0.13. Then SSMSNIEE, with -1.15 ± 0.42. FRKCI: the amyloid nucleation score was determined as 1.25 ± 0.38.

KARSRLLVFYKYTKGIWAQS yielded an amyloid nucleation score of -0.147 ± 1.1.

On to YSCMVFSLGRVMELSGHMFG, for which the amyloid nucleation score entry is “inactive”.

Take TYPMMGQGFC: the amyloid nucleation score worked out at 0.131 ± 0.55.

Substance GLRSLVHEARCRYKTSTSVK had an amyloid nucleation score of -0.939 ± 0.55. CIYVYSLVWM: the amyloid nucleation score was 2.42 ± 0.2. For the substance DCLYGRFRHRHG, the amyloid nucleation score stood at 5.723 ± 0.035. Then YRNRVSLRKYRDARYQLCCT, with 0.247 ± 0.25; and LLFINGHAMTGAVYTITKLT, with -0.302 ± 0.36. Then MNHTDGQHCFVSWRCLDGWR, with 0.705 ± 0.66; and AVRPGSRSWGVIRGVNSTFL, with 1.08 ± 0.43. Take VTGNTSRLISRPGANPNCMG: the amyloid nucleation score is -0.03 ± 0.56.

On to IFPEL, for which the amyloid nucleation score is -1.11 ± 0.45. For TLDGMQMSWFRNGV, the amyloid nucleation score came to 3.93 ± 0.13. Substance SSIDMSCQHHLVALIRGFKE had an amyloid nucleation score of 2.24 ± 0.2. With FNINSPTALSYFMVLEVPLV, the amyloid nucleation score is 2.42 ± 0.12.

The substance GLTGRPQRLIVWAYDLERLW came in with an amyloid nucleation score of -0.09 ± 0.63. Under RVNMDAGVLSVHLEAVGFHM stands 4.08 ± 0.057; under SVFAKGISAVLLGACLRIAA, 1.03 ± 0.25.

As to TSRPMALQGYSGNSDDVTYV, the amyloid nucleation score was 0.445 ± 0.65. Under QSVLSLSGLYGHDLREGLL stands -0.387 ± 0.49. Then IRMEFCDAMTICLLKQR, with 3.72 ± 0.056; and ANMLRWLNFETFAVSRNLAI, with 0.009 ± 0.74; and ADQSYLRNCIFWRQMILTRY, with -0.193 ± 0.39.

For the substance SNPTSVQVRFLLHILLKSVL, the amyloid nucleation score was 0.629 ± 0.52.

As for VTWGIIYRLSDG, the amyloid nucleation score came out at 3.58 ± 0.09.

For FDSYTIMVI, the amyloid nucleation score was 0.682 ± 0.21.

QLFTWILVAPKLPCWF displayed an amyloid nucleation score of 6.36 ± 0.086. Then LYLSVPQYYFSCLFSMVEVQ, with -1.07 ± 0.61; and HYRSFVDFITGWLVSFATEP, with 4.28 ± 0.054. Consider YSFYAGFVNYIKVWNNRG, for which the amyloid nucleation score was 4.23 ± 0.05. Then VGCIYRTQDCCSRDMVCIRV, with 0.071 ± 0.79.
